Molecular target: Recombinant His-tagged SF2/ASF (rSF2/ASF) (UniProt Q07955)
Sequence (Q07955 whole entry): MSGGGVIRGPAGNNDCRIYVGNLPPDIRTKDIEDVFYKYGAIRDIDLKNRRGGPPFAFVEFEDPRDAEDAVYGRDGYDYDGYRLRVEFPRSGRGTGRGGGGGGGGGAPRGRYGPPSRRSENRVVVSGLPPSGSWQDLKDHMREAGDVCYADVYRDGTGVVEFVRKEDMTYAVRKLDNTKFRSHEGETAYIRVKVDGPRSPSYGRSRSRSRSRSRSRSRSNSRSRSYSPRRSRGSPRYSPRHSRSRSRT

Sequence of Glutathione S-transferase-tagged mClk1/Sty (recombinant Clk1/Sty) (chain, as listed by the source): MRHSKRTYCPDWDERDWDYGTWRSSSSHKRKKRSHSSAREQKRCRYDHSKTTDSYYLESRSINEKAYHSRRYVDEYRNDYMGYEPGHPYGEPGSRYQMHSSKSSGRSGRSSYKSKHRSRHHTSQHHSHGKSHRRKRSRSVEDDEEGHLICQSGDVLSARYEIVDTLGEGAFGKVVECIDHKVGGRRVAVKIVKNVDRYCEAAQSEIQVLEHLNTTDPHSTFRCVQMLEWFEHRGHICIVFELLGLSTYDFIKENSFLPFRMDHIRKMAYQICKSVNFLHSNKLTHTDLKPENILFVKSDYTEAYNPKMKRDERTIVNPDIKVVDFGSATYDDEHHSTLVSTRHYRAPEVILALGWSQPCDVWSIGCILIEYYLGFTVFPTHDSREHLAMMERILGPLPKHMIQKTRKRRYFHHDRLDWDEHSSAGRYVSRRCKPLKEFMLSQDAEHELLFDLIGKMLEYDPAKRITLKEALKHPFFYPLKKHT

Question: With “Glutathione S-transferase-tagged mClk1/Sty (recombinant Clk1/Sty)” as the substance, how does the “electrophoretic mobility of rSF2/ASF on SDS-PAGE / Western blot with AK103 (phosphorylation state)” value read?
Answer: rSF2/ASF exhibited reduced electrophoretic mobility in the presence of Clk 1/Sty (FIG. 2A, lane 2) compared with the rSF2/ASF alone
